According to US20250011391A1, “ULTRA LIGHT-SENSITIVE NEUROPSIN-BASED OPTOGENETIC TOOL FOR ACTIVATING G q-COUPLED SIGNALING AND/OR ACTIVATING CELLS” (GENANS BIOTECHNOLOGY CO., LTD, priority 2021, published 2025):

Key:
[1] = test system: GCaMP7b-expressing neurons in mouse S1 cortex; assay: In vivo two-photon neuron calcium imaging following cOpn5-mediated astrocyte activation; conditions: cOpn5-mediated astrocytes activation; N=193 neurons
Description: Astrocytes release ATP and other gliotransmitters also act on neuronal receptors to modulate neuron activity. Two-photon imaging of neuronal Ca^2+ signals with cOpn5-mediated astrocytes activation from head-fixed awake, behaving mice, is performed (FIG. 6e). cOpn5-expressing cells (n=406) colocalize with GFAP-staining (n=397), but not GCaMP7b-expressing neurons (FIG. 6f).
e, Schematic diagram of the experimental setup for in vivo two-photon imaging (920 nm) of neuron calcium imaging following cOpn5-mediated astrocyte activation. Images show the expression of cOpn5 (red) in astrocytes and the expression of a GCaMP7b (green) in […] the mouse S1 cortex. Scale bar, 100 μm.
h, Calcium events analysis of GCaMP7b-expressing neurons in 0-5 min and 15-20 min, coupled with cOpn5-mediated astrocytes activation. N=193 neurons, ****P<0.0001, Unpaired t test.

[2] = test system: LH GABAergic neurons of VGAT-Cre mice; assay: Optogenetics and food intake assay; assay type: in vivo, mouse; conditions: 20 Hz; 5 ms/pulse; 473 nm; 0.75 mW; vs EGFP-expressing control mice
Description: Finally, the utility of cOpn5-mediated optogenetics for modulating animal behavior is assessed. The lateral hypothalamus (LH) is a brain center with known functions in reward processing and feeding behaviors^54,55. cOpn5 is expressed in the LH GABAergic neurons of VGAT-Cre mice and implanted optical fibers to deliver light pulses into the LH of freely behaving mice (FIG. 8g). […] Electrophysiological recordings on LH and ZI cOpn5-expressing neurons are performed to characterize the response profiles. The injection sites and placement of optical fibers are confirmed by whole brain slices (FIG. 10a-c). […] Thus, cOpn5 is effective for rapidly, accurately, and reversibly modulating animal behavioral states.
g, Schematic diagram of the experimental setup for optogenetics and food intake assay. cOpn5-EGFP was expressed in GABAergic neurons within the lateral hypothalamus (LH) of VGAT-Cre mice. EGFP was expressed as a control.
h, Summary of light-induced (20 Hz; 5 ms/pulse; 473 nm; 0.75 mW output from the fiber tip), cOpn5-mediated activation of eating behaviors. ***P=0.0003; n.s., non-significant; n=6 mice; unpaired t test. Error bars indicate S.E.M.

[3] = test system: Gq signaling in HEK 293T cells; assay: Light-induced Ca2+ signal (Calbryte 630 AM dye) in opsin-expressing HEK 293T cells; assay type: cell-based; conditions: for Light Sensitivity / Response amplitude: Ca2+ response amplitude: Table 8
Description: (§1) Whether heterologous expression of the Opn5 orthologs from chicken, turtles, humans and mice (which share 80-90% protein sequence identity) have the capacity to mediate blue light-induced Gq signaling activation within HEK 293T cells is tested (FIG. 1a and table 7). Blue light for stimulation and the red intracellular calcium indicator Calbryte™ 630 AM dye are used to monitor the relative Ca^2+ response (FIG. 1b).
b, Pseudocolor images of the Ca2+ signal before and after blue light stimulation (10 s; 100 μW/mm^2; 488 nm) in HEK 293T cells expressing Opn5 from three species (Gallus gallus, Homo sapiens, and Mus musculus). Scale bar, 10 μm.
Characterizing the light-activating properties of cOpn5 heterologously expressed in HEK 293T cells is performed. […] The effects of different light durations on cOpn5-expressing HEK 293T cells are tested. […] Therefore, the light sensitivity of cOpn5 is 3-4 orders of magnitude higher than the reported values of the light-sensitive Gq-coupled GPCRs and even 2-3 orders higher than those of the commonly used optogenetic tool Channelrhodopsin-2 (ChR2)(Lin, 2011; Zhang et al., 2006) (table 8).
The performance of cOpn5 to that of opto-a1AR, a chimera GPCR engineered by mixing rhodopsin with Gq-coupled adrenergic receptor is compared. […] The performance of cOpn5 to that of opn4, a natural opsin which was reported as a tool for Gq signaling activating is also compared. […] Therefore, compared with existing opsin-based tools (opto-a1AR and opn4), cOpn5 is much more light-sensitive (˜3 orders more sensitive), requires much shorter time exposure (10 ms vs. 60 s), and produces stronger responses. […]
Experiments description: the following table 9 is a partial list of cOpn5 orthologs from vertebrata tested in the present invention. Whole genes of all reported opsin5 orthologs from vertebrata (the vertebrates subphylum, including rotundia, cartilaginous fishes, bony fishes, Amphibia, reptila, ornitha and mammals) are synthetized, and expressed in HEK 293T cells. Calcium imaging with or without 470 nm blue light stimulation is performed to test the sensitivity of the opsin 5 orthologs in response to light. The time course of light-induced calcium signal reveal the activated degree of Gq signaling pathway and the sensitivity of these orthologs.

[4] = test system: MARCKS protein, a well-established target of PKC; assay: Phosphorylation of MARCKS in cOpn5-expressing HEK 293T cells; assay type: cell-based; conditions: normalized to α-tubulin; PKC activity-dependent
Description: as §1
g, Phosphorylation of MARCKS in cOpn5-expressing HEK 293T cells in the control group (no light stimulation), the light stimulation group, and light+staurosporine (ST, PKC inhibitor) group. The amount of p-MARCKS in the same fraction was normalized to the amount of α-tubulin. **P=0.0096, ***P=0.0004; Tukey's multiple comparisons test.
e, One representative of phosphorylation of MARCKS in cOpn5-expressing HEK 293T cells in the control group (no light stimulation), the light stimulation group, and light+staurosporine group. The amount of p-MARCKS in the same fraction was normalized to the amount of α-tubulin.

mouse cortical neurons = assay: Ca2+ imaging (jRGECO1a) of cOpn5-expressing neurons in brain slice preparations; assay type: cell-based; conditions: 10 s; 100 μW/mm2; 473 nm
Source text: The application of cOpn5-mediated optogenetics in neurons is explored. Whether cOpn5 could mediate light-induced Ca^2+ signals is firstly examined. Using AAV and the pan-neuronal SYN promoter, cOpn5 and the genetically-encoded Ca^2+ sensor jRGECOla are expressed in mouse cortical neurons (FIG. 8a). […] Thus, cOpn5 also enables light-induced activation in neurons.
b, Pseudocolor images show Ca^2+ signals before and after light stimulation (10 s; 100 μW/mm2; 473 nm). Scale bar, 10 μm.

[5] = 10 ms 16 μW/mm2 470 nm, mean±S.E.M., n=10 cells

B1: cOpn5: Chicken (Gallus gallus) Opn5 (neuropsin) ortholog, SEQ ID NO:1, GenBank NM_001130743.1 (protein, listed as Gallus lafayetii)
chain: MSGMASDCNSSSQEEYLPHYVQQEDPFASKLSREADIIAGFYLTVIGILSTLGNGYVIFMSSKRKKKLRPAEIMTVNLAVCDLGISVVGKPFSIISFFSHRWIFGWMGCRWYGWAGFFFGCGSLITMTAVSLDRYLKICHLAYGTWLKRHHAFICLALIWAYATFWATVPFAGVGSYAPEPFGTSCTLDWWLAQASVAGQAFVLSILFFCLLFPTAVIVFSYVKIILKVKSSTKEVAHYDTRIQNSHILEMKLTKVAMLICAGFLIAWIPYAVVSVWSAFGQPDSVPIQFSVVPTLLAKSAAMYNPIIYQVIDCKFACCRSGGPKTLQKKSSLKESRMYTLSSHRDSAALSGTQLEV
In the case of B1, the “neuron activity, 15-20 min compared to 0-5 min” value [1] is reported as “significantly elevates neuron activity”, the “food intake on light stimulation” value [2] is reported as “significant increase in food intake” and the “light sensitivity higher than reported values of Channelrhodopsin-2 (ChR2)” value [3] is reported as 2-3 orders of magnitude. The “light sensitivity higher than reported values of light-sensitive Gq-coupled GPCRs” value [3] was 3-4 orders of magnitude, the “more light-sensitive than opto-a1AR and opn4” value [3] was roughly 3 orders and the “10% peak activation time of Ca2+ signal” value [3, 5] was 1.36 ± 0.55 s. The “90% peak activation time of Ca2+ signal” value [3, 5] was 2.37 ± 0.87 s, the “decay time τ of Ca2+ signal” value [3, 5] was 18.66 ± 4.98 s and the “Ca2+ signals without extracellular Ca2+” value ([3]; 10 ms, 16 μW/mm2, 470 nm) was “resistant to the removal of extracellular Ca^2+”. The “light duration at which Ca2+ response achieves saturation” value ([3]; 16 μW/mm2, 470 nm) was “over 10 ms”, the “Ca2+ response to longer-wavelength visible light (561 nm or above)” value ([3]; 100 μW/mm2) was “completely ineffective” and the “Ca2+ response to UVA light (365 and 395 nm)” value ([3]; 100 μW/mm2, versus 470 nm) was “less effective”. For the same molecule, the “light intensity producing about half maximum response” value ([3]; 470 nm, 10 ms) was roughly 4.8 μW/mm^2, the “light intensity producing full maximum response / full activation” value ([3]; 470 nm, 10 ms) was 16 μW/mm^2 and the “light duration required for full activation” value ([3]; 470 nm, 16 μW/mm2) was 10 ms. The “Light Sensitivity” value ([3]; HEK 293T cells, 10 ms stimulation, response ~3.0 ΔF/F) was 16 μW/mm^2, the “Response amplitude: Ca2+ response amplitude” value ([3]; HEK 293T cells, 470 nm, 0.026 μW/mm2, >2 s) was ~1 (ΔE/F) and the “Light Sensitivity” value ([3]; HEK 293T cells, >2 s stimulation, response ~1) was 0.026 μW/mm^2. The “Response amplitude: Ca2+ response amplitude” value ([3]; HEK 293T, light as in the row's sensitivity and duration columns) was ~3.0 (ΔF/F), the “light-induced increase in Ca2+ signal” value ([3]; blue light 10 s, 100 μW/mm2, 488 nm, no exogenous retinal) was ~3 ΔF/F and the “peak amplitudes of Ca2+ signals” value ([3]; cOpn5-expressing cells, 10 ms blue light pulses at 16 μW/mm2) was 3-8 ΔF/F. For the same molecule, the “more rapid than opto-a1AR or opn4 (temporal resolution)” value ([3]; in response to 10 ms light pulses) was ~3 orders of magnitude, the “response kinetics versus hM3Dq-expressing cells” value ([3]; light 10 s vs CNO puff 100 nM 10 s) was “faster and temporally more precise response” and the “wavelength eliciting the strongest Ca2+ transients” value ([3]; wavelengths 365-630 nm at fixed 100 μW/mm2) was 470 nm. The “blue light-triggered phosphorylation of MARCKS protein” value [4] was “triggers the phosphorylation of MARCKS protein” and the “Ca2+ transients in neurons on blue light pulses” value (mouse cortical neurons) was “reliably evokes Ca^2+ transients”.
